From US20160137708A1 (Amgen, published 2016) come the findings set out here.

First the molecules themselves.
T1: human IL-1Rrp2 (IL-1R-related protein 2) (human, UniProt Q9HB29 20-575)
T1 sequence (looked up): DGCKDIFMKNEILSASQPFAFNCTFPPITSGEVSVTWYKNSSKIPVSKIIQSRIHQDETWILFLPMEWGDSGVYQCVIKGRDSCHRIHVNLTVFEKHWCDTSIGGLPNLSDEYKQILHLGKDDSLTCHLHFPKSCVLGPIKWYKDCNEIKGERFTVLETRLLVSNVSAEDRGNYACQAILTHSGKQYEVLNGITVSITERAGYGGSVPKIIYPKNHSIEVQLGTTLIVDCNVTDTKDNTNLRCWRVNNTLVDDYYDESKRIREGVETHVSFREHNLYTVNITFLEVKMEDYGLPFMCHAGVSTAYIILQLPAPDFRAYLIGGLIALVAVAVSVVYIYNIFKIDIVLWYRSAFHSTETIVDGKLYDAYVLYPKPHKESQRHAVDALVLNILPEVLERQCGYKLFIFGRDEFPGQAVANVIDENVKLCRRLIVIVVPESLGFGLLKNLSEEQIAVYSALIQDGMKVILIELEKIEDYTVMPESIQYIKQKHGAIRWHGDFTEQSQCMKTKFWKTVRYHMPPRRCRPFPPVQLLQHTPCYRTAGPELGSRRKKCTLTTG

B1: HuIL-1F8WT (untagged full length wild type human IL-1F8) (ligand)
chain: MNPQREAAPKSYAIRDSRQMVWVLSGNSLIAAPLSRSIKPVTLHLIACRDTEFSDKEKGNMVYLGIKGKDLCLFCAEIQGKPTLQLKEKNIMDLYVEKKAQKPFLFFHNKEGSTSVFQSVSYPGWFIATSTTSGQPIFLTKERGITNNTNFYLDSVE
B2: HuIL-1F6 WT (untagged full length wild type human IL-1F6) (ligand)
chain: MEKALKIDTPQQGSIQDINHRVWVLQDQTLIAVPRKDRMSPVTIALISCRHVETLEKDRGNPIYLGLNGLNLCLMCAKVGDQPTLQLKEKDIMDLYNQPEPVKSFLFYHSQSGRNSTFESVAFPGWFIAVSSEGGCPLILTQELGKANTTDFGLTMLF
B3: HuIL-1F6WT/FpH (ligand)
chain: MEKALKIDTPQQGSIQDINHRVWVLQDQTLIAVPRKDRMSPVTIALISCRHVETLEKDRGNPIYLGLNGLNLCLMCAKVGDQPTLQLKEKDIMDLYNQPEPVKSFLFYHSQSGRNSTFESVAFPGWFIAVSSEGGCPLILTQELGKANTTDFGLTMLFDYKDDDDKHHHHHH
B4: HuIL-1F8WT/FpH (ligand)
chain: MNPQREAAPKSYAIRDSRQMVWVLSGNSLIAAPLSRSIKPVTLHLIACRDTEFSDKEKGNMVYLGIKGKDLCLFCAEIQGKPTLQLKEKNIMDLYVEKKAQKPFLFFHNKEGSTSVFQSVSYPGWFIATSTTSGQPIFLTKERGITNNTNFYLDSVEDYKDDDDKHHHHHH
B5: HuIL-1F9WT/FpH (ligand)
chain: MRGTPGDADGGGRAVYQSMCKPITGTINDLNQQVWTLQGQNLVAVPRSDSVTPVTVAVITCKYPEALEQGRGDPIYLGIQNPEMCLYCEKVGEQPTLQLKEQKIMDLYGQPEPVKPFLFYRAKTGRTSTLESVAFPDWFIASSKRDQPIILTSELGKSYNTAFELNINDDYKDDDDKHHHHHH
B6: HuIL-1F9WT (untagged full length wild type human IL-1F9) (ligand)
chain: MRGTPGDADGGGRAVYQSMCKPITGTINDLNQQVWTLQGQNLVAVPRSDSVTPVTVAVITCKYPEALEQGRGDPIYLGIQNPEMCLYCEKVGEQPTLQLKEQKIMDLYGQPEPVKPFLFYRAKTGRTSTLESVAFPDWFIASSKRDQPIILTSELGKSYNTAFELNIND
B7: HuIL-1F9S18/FpH (ligand)
chain: SMCKPITGTINDLNQQVWTLQGQNLVAVPRSDSVTPVTVAVITCKYPEALEQGRGDPIYLGIQNPEMCLYCEKVGEQPTLQLKEQKIMDLYGQPEPVKPFLFYRAKTGRTSTLESVAFPDWFIASSKRDQPIILTSELGKSYNTAFELNINDDYKDDDDKHHHHHH
B8: HuIL-1F6K6 (ligand)
chain: KIDTPQQGSIQDINHRVWVLQDQTLIAVPRKDRMSPVTIALISCRHVETLEKDRGNPIYLGLNGLNLCLMCAKVGDQPTLQLKEKDIMDLYNQPEPVKSFLFYHSQSGRNSTFESVAFPGWFIAVSSEGGCPLILTQELGKANTTDFGLTMLF
B9: HuIL-1F8E6/FpH (ligand)
chain: MEAAPKSYAIRDSRQMVWVLSGNSLIAAPLSRSIKPVTLHLIACRDTEFSDKEKGNMVYLGIKGKDLCLFCAEIQGKPTLQLKEKNIMDLYVEKKAQKPFLFFHNKEGSTSVFQSVSYPGWFIATSTTSGQPIFLTKERGITNNTNFYLDSVEDYKDDDDKHHHHHH
B10: HuIL-1F9S18 (ligand)
chain: SMCKPITGTINDLNQQVWTLQGQNLVAVPRSDSVTPVTVAVITCKYPEALEQGRGDPIYLGIQNPEMCLYCEKVGEQPTLQLKEQKIMDLYGQPEPVKPFLFYRAKTGRTSTLESVAFPDWFIASSKRDQPIILTSELGKSYNTAFELNIND
B11: HuIL-1F8R5 (ligand)
chain: REAAPKSYAIRDSRQMVWVLSGNSLIAAPLSRSIKPVTLHLIACRDTEFSDKEKGNMVYLGIKGKDLCLFCAEIQGKPTLQLKEKNIMDLYVEKKAQKPFLFFHNKEGSTSVFQSVSYPGWFIATSTTSGQPIFLTKERGITNNTNFYLDSVE
B12: HuIL-1F6I7/FpH (ligand)
chain: MIDTPQRGSIQDINHRVWVLQDQTLIAVPRKDRMSPVTIALISCRHVETLEKDRGNPIYLGLNGLNLCLMCAKVGDQPTLQLKEKDIMDLYNQPEPVKSFLFYHSQSGRNSTFESVAFPGWFIAVSSEGGCPLILTQELGKANTTDFGLTMLFDYKDDDDKHHHHHH
B13: HuIL-1F9M19/FpH (ligand)
chain: B7 chain with S1M

Positions count from the first letter of the chain named. A value given as a limit tells only on which side of the number the result lay.

The first test concerns the target T1, human IL-1Rrp2 (IL-1R-related protein 2). The test can be described thus: cell-based or functional assay.
Regarding B1, the EC50, IL-8 ELISA of supernatants of Jurkat T-REx cells expressing human IL-1Rrp2 was determined as 10500 ng/mL and the EC50, luciferase reporter assay in IL-1Rrp2 transfected Jurkat cells is > 193 ng/mL.
On the same counts, the results for B2 are 12900 ng/mL and > 212 ng/mL.
As to B3, the EC50, luciferase reporter assay in IL-1Rrp2 transfected Jurkat cells was > 136 ng/mL.
On the same count and under the same terms, in the case of B4 it was > 258 ng/mL; in that of B5, > 332 ng/mL.
B6: the EC50, IL-8 ELISA of supernatants of Jurkat T-REx cells expressing human IL-1Rrp2 worked out at 4070 ng/mL and the EC50, luciferase reporter assay in IL-1Rrp2 transfected Jurkat cells was > 544 ng/mL.

The next test shares this target. In words: cell-based or functional assay. This is another data set of the same source.
With B7, the “EC50, IL-8 ELISA of supernatants of Jurkat T-REx cells expressing human IL-1Rrp2” value amounted to 17 ng/mL.
Same read-out and setting: in the case of B8 it was 0.164 ng/mL.
Same read-out and setting: in the case of B9 it was 2 ng/mL; in that of B10, 1 ng/mL; in that of B11, 0.129 ng/mL.
B12: the “EC50, IL-8 ELISA of supernatants of Jurkat T-REx cells expressing human IL-1Rrp2” value stood at 60 ng/mL.

The next test has the same target. The test can be described thus: cell-based or functional assay. The source holds these as a separate data set.
Consider B7, for which the “EC50, luciferase reporter assay in IL-1Rrp2 transfected Jurkat cells” value worked out at 1 ng/mL.
Same read-out and setting: in the case of B13 it was 1.1 ng/mL; in that of B9, 0.2 ng/mL.
On to B12, for which the “EC50, luciferase reporter assay in IL-1Rrp2 transfected Jurkat cells” value came to 2.8 ng/mL.
